Reference: paper PMC9571070, “Three-Fluorophore FRET Enables the Analysis of Ternary Protein Association in Living Plant Cells” (Plants, 2022)

Target: T1, Receptor-Like Protein 44 fused to monomeric Turquoise 2 (RLP44-mTRQ2) (UniProt Q9M2Y3 25-274)
T1 construct: Receptor-Like Protein 44 (RLP44); Plasma membrane protein with its own signal peptide; also called RLP44-TRQ2; source: N. benthamiana epidermal leaf cells, transiently transformed, in living cells; not shown: mTRQ2, C-terminal, kept
T1 sequence (looked up): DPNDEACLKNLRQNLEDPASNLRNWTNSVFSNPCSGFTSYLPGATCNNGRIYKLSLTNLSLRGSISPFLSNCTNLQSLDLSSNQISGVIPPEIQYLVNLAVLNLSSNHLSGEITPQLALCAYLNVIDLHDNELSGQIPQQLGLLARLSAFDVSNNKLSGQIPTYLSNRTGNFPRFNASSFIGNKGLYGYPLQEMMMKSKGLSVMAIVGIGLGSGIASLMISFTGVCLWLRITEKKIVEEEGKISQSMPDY
Assay: FRET or BRET; FRET-FLIM, fluorescence lifetime of the donor RLP44-mTRQ2 (440 nm pulsed laser, TCSPC), two fusion proteins co-expressed, plasma membrane of living N. benthamiana epidermal leaf cells
Conditions: partners not purified

fluorescence lifetime of the donor RLP44-mTRQ2 (donor alone about 3.99 ns): 3.54 ns
B1: BRI1 Associated Kinase 1 fused to monomeric red fluorescence protein 1 (BAK1-mRFP) (receptor, UniProt Q94F62 26-615, looked up)
chain: NAEGDALSALKNSLADPNKVLQSWDATLVTPCTWFHVTCNSDNSVTRVDLGNANLSGQLVMQLGQLPNLQYLELYSNNITGTIPEQLGNLTELVSLDLYLNNLSGPIPSTLGRLKKLRFLRLNNNSLSGEIPRSLTAVLTLQVLDLSNNPLTGDIPVNGSFSLFTPISFANTKLTPLPASPPPPISPTPPSPAGSNRITGAIAGGVAAGAALLFAVPAIALAWWRRKKPQDHFFDVPAEEDPEVHLGQLKRFSLRELQVASDNFSNKNILGRGGFGKVYKGRLADGTLVAVKRLKEERTQGGELQFQTEVEMISMAVHRNLLRLRGFCMTPTERLLVYPYMANGSVASCLRERPESQPPLDWPKRQRIALGSARGLAYLHDHCDPKIIHRDVKAANILLDEEFEAVVGDFGLAKLMDYKDTHVTTAVRGTIGHIAPEYLSTGKSSEKTDVFGYGVMLLELITGQRAFDLARLANDDDVMLLDWVKGLLKEKKLEALVDVDLQGNYKDEEVEQLIQVALLCTQSSPMERPKMSEVVRMLEGDGLAERWEEWQKEEMFRQDFNYPTHHPAVSGWIIGDSTSQIENEYPSGPR
notes: BRI1 Associated Kinase 1 (BAK1), co-receptor kinase; also called BAK1-RFP; source: N. benthamiana epidermal leaf cells, transiently transformed, in living cells; not shown: mRFP, C-terminal, kept
